The values below come from the supplement of paper PMC9732359.

± gives the uncertainty stated by the source.

The nature of the series: protein stability index of a GFP-peptide fusion (yeast GPS) (PSI 1-4); higher = more stable; sorted into four equal gates, so the index is relative within each strain. In short, it runs like this: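 Plasmids isolated from each sorting gate were PCR-amplified and Illumina-sequenced, and barcodes assigned the reads to strains. The gates, four of equal size, were set by GFP/Cherry fluorescence ratio on mid-log cultures in leucine-free medium. These cultures were yeast carrying a pooled library of tiled 17-residue yeast protein peptides fused downstream of GFP on a plasmid that also expresses Cherry. The protein stability index is the sum of every gate's read frequency times its gate number.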

As to IHQILLPTNPTLDKPNA [CSE2], the protein stability index by setting is: (doa10∆) 2.56 ± 0.039; (pdr5∆) 2.58 ± 0.041; (san1∆) 2.37 ± 0.044; (ubr1∆) 2.42 ± 0.034.

Regarding QLLQRIPNIPPNINTWQ [GAL11], the protein stability index was determined as 2.55 ± 0.048 (doa10∆), 2.72 ± 0.049 (pdr5∆), 1.96 ± 0.059 (san1∆) and 2.62 ± 0.044 (ubr1∆).

In the case of SANPKKTTITRVEPETF [SWI3], the protein stability index reads like this: (doa10∆) 2.86 ± 0.065; (pdr5∆) 3.06 ± 0.068; (san1∆) 3.03 ± 0.052; (ubr1∆) 2.95 ± 0.051.

As for QGKPYISLPKGKGIKLS [RPS4A], the protein stability index was 3.29 ± 0.07 (doa10∆), 3.33 ± 0.081 (pdr5∆), 2.84 ± 0.06 (san1∆) and 2.45 ± 0.073 (ubr1∆).

Take EKGPQVCAKLFGNIQKV [RPO21]: the protein stability index turned out to be 2.63 ± 0.08 (doa10∆), 2.29 ± 0.057 (pdr5∆), 2.29 ± 0.079 (san1∆) and 2.09 ± 0.06 (ubr1∆).

In the case of EERKRWAMQGISYLQEV [PCI8], the protein stability index is 3.58 ± 0.19 (doa10∆), 3.15 ± 0.13 (pdr5∆), 3.12 ± 0.15 (san1∆) and 3.23 ± 0.11 (ubr1∆).

Consider QYNIPPEREVLVRELYQ [RRP6], for which the protein stability index was 2.52 ± 0.061 (doa10∆), 2.15 ± 0.089 (pdr5∆), 2.37 ± 0.14 (san1∆) and 2.17 ± 0.083 (ubr1∆).

For SSEIDRENVKSKDEPVS [SIR4], the protein stability index is 3.13 ± 0.15 (doa10∆), 3.33 ± 0.12 (pdr5∆), 2.92 ± 0.082 (san1∆) and 3.27 ± 0.086 (ubr1∆).

Consider HRQEIFKDSPMDLFMST [GAL11], for which the protein stability index amounted to 2.85 ± 0.089 (doa10∆), 2.98 ± 0.059 (pdr5∆), 3.23 ± 0.073 (san1∆) and 2.87 ± 0.076 (ubr1∆).

DEISPELLSKYKEQIIQ [SNU114]: the protein stability index (doa10∆) was 2.44 ± 0.079, the protein stability index (pdr5∆) was 2.57 ± 0.08, the protein stability index (san1∆) was 2.42 ± 0.079 and the protein stability index (ubr1∆) turned out to be 2.68 ± 0.075.

Take NPLWNAIIVAGVQSNGD [PRE4]: the protein stability index by setting is: (doa10∆) 1.25 ± 0.054; (pdr5∆) 1.37 ± 0.044; (san1∆) 1.53 ± 0.075; (ubr1∆) 1.89 ± 0.04.

In the case of TNQLKSLKGLQSKLKDV [RPN8], the protein stability index reads like this: (pdr5∆) 1.59 ± 0.23; (san1∆) 2.62 ± 0.19; (ubr1∆) 1.36 ± 0.13.

The sequence PIKEAKIKHGSVTEIPL [YMR129W/POM152] had a protein stability index (doa10∆) of 2.9 ± 0.046, a protein stability index (pdr5∆) of 3 ± 0.046, a protein stability index (san1∆) of 2.6 ± 0.06 and a protein stability index (ubr1∆) of 2.99 ± 0.05.

As to TVDGRLYQLFKTCIQGI [YJL039C/NUP192], the protein stability index reads like this: (doa10∆) 2.86 ± 0.16; (pdr5∆) 2.98 ± 0.23; (san1∆) 3.03 ± 0.11.

LYAIKKVTLNKETQQYE [BRR2]: the protein stability index is 3.03 ± 0.15 (doa10∆), 3.21 ± 0.13 (pdr5∆), 2.99 ± 0.094 (san1∆) and 3.36 ± 0.081 (ubr1∆).

For the sequence SVIVSQFCAFDSSSNTY [SIN4], the protein stability index is 2.48 ± 0.084 (doa10∆), 2.26 ± 0.073 (pdr5∆), 2.51 ± 0.12 (san1∆) and 2.19 ± 0.074 (ubr1∆).

In the case of QIANDPSKKRRRDFGAP [SMD1], the protein stability index by setting is: (doa10∆) 2.81 ± 0.12; (pdr5∆) 3.18 ± 0.1; (san1∆) 2.86 ± 0.092; (ubr1∆) 3.25 ± 0.073.

Turning to EIILDFLQDKVQIKDVN [CSI1], the protein stability index (doa10∆) came to 3.12 ± 0.086, the protein stability index (pdr5∆) turned out to be 2.83 ± 0.055, the protein stability index (san1∆) came out at 2.36 ± 0.076 and the protein stability index (ubr1∆) came out at 3.17 ± 0.051.

As for IQDTLRTGSQSPPSSSQ [MED7], the protein stability index is 2.81 ± 0.044 (doa10∆), 2.91 ± 0.05 (pdr5∆), 2.77 ± 0.043 (san1∆) and 2.89 ± 0.032 (ubr1∆).

In the case of FAAILVLLVLPFTDRSV [COB], the protein stability index by setting is: (doa10∆) 2.88 ± 0.081; (pdr5∆) 1.3 ± 0.095; (san1∆) 1.54 ± 0.15; (ubr1∆) 1.13 ± 0.065.

As for KTNKISILKRHSFAVLL [NUT1], the protein stability index was 2.03 ± 0.11 (doa10∆), 2.4 ± 0.099 (pdr5∆), 2.19 ± 0.12 (san1∆) and 1.99 ± 0.075 (ubr1∆).

As to EATQDDDFDMLFGENDT [NUT1], the protein stability index reads like this: (doa10∆) 2.92 ± 0.071; (pdr5∆) 3.13 ± 0.06; (san1∆) 3.06 ± 0.065; (ubr1∆) 3.04 ± 0.062.

Take VKRLLFTIRGFKQKLNE [MTW1]: the protein stability index reads like this: (doa10∆) 3.04 ± 0.058; (pdr5∆) 2.76 ± 0.048; (san1∆) 2.86 ± 0.044; (ubr1∆) 3.14 ± 0.043.

As for ETEIKDLTQLLEKERSI [SMC4], the protein stability index is, setting by setting: (doa10∆) 3.34 ± 0.079; (pdr5∆) 3.15 ± 0.048; (san1∆) 3.24 ± 0.051; (ubr1∆) 3.25 ± 0.039.

Regarding NFGFGIDEHIDLGIKYD [RPL11A], the protein stability index by setting is: (doa10∆) 2.59 ± 0.1; (pdr5∆) 2.51 ± 0.16; (san1∆) 2.39 ± 0.11; (ubr1∆) 2.39 ± 0.11.

On to SDLRVLSGSISERIVDC [FAS1], for which the protein stability index was 2.95 ± 0.14 (doa10∆), 3.45 ± 0.15 (pdr5∆), 3.41 ± 0.087 (san1∆) and 3.26 ± 0.098 (ubr1∆).

On to SDDAAQFMKRFPMPYEN [ECM29], for which the protein stability index runs as follows: (doa10∆) 2.96 ± 0.068; (pdr5∆) 3 ± 0.14; (san1∆) 2.9 ± 0.082.

Take NMVLENVKELWTEKKGK [SMD2]: the protein stability index is, setting by setting: (doa10∆) 2.91 ± 0.11; (pdr5∆) 2.67 ± 0.098; (san1∆) 2.47 ± 0.14; (ubr1∆) 3.3 ± 0.065.

Take LITQLDGFDPRGNIKVM [RPT1]: the protein stability index was determined as 3.31 ± 0.22 (pdr5∆), 3.15 ± 0.09 (san1∆) and 3.32 ± 0.21 (ubr1∆).

Take QAESMKFKLLNGLAIRR [RPS3]: the protein stability index is, setting by setting: (doa10∆) 1.69 ± 0.069; (pdr5∆) 2.3 ± 0.085; (san1∆) 1.48 ± 0.12; (ubr1∆) 2.58 ± 0.1.

As to PFDKKSNSALFRAVGEG [FAS1], the protein stability index was found to be 2.92 ± 0.074 (doa10∆), 2.92 ± 0.082 (pdr5∆), 2.85 ± 0.052 (san1∆) and 2.91 ± 0.063 (ubr1∆).

As for VLALKVEDFLERRLQTQ [RPS9A], the protein stability index runs as follows: (doa10∆) 2.42 ± 0.14; (pdr5∆) 2.86 ± 0.092; (san1∆) 2.63 ± 0.072; (ubr1∆) 2.83 ± 0.076.

As to LERVKRIMEKSVILSVI [YML031W/NDC1], the protein stability index is, setting by setting: (doa10∆) 2.71 ± 0.086; (pdr5∆) 2.17 ± 0.094; (san1∆) 1.98 ± 0.096; (ubr1∆) 1.61 ± 0.049.

Take LEYWCNPPYSQCIVYPN [SOH1]: the protein stability index worked out at 2.03 ± 0.048 (doa10∆), 2.27 ± 0.045 (pdr5∆), 2.05 ± 0.054 (san1∆) and 2.13 ± 0.037 (ubr1∆).

Regarding EESSTGKSTADVKSSDS [YJL041W/NSP1], the protein stability index (pdr5∆) came to 3.35 ± 0.19.

LQQKHELDTASRILKAQ [YGR119C/NUP57] showed a protein stability index (doa10∆) of 2.73 ± 0.045, a protein stability index (pdr5∆) of 2.83 ± 0.046, a protein stability index (san1∆) of 2.53 ± 0.052 and a protein stability index (ubr1∆) of 3.03 ± 0.034.

SSRFKHRQEIFKDSPMD [GAL11] had a protein stability index (doa10∆) of 2.71 ± 0.078, a protein stability index (pdr5∆) of 3.11 ± 0.066, a protein stability index (san1∆) of 3.03 ± 0.059 and a protein stability index (ubr1∆) of 3.01 ± 0.076.
